Data: FireProtDB (doi:10.1093/protein/9.5.425)

Details: Escherichia coli (strain K12); pH 9; 50 °C; Thermal; DSC; Sodium tetraborate 1 mM; reversible: yes; whole UniProt chain shown

B1: Tryptophan synthase alpha chain wild type, P0A877 (protein)
chain: MERYESLFAQLKERKEGAFVPFVTLGDPGIEQSLKIIDTLIEAGADALELGIPFSDPLADGPTIQNATLRAFAAGVTPAQCFEMLALIRQKHPTIPIGLLMYANLVFNKGIDEFYAQCEKVGVDSVLVADVPVEESAPFRQAALRHNVAPIFICPPNADDDLLRQIASYGRGYTYLLSRAGVTGAENRAALPLNHLVAKLKEYNAAPPLQGFGISAPDQVKAAIDAGAAGAISGSAIVKIIEQHINEPEKMLAALKVFVQPMKAATRS
heat capacity change of unfolding: 4.81 kcal/mol/K | unfolding free energy: 1.17 kcal/mol
